Data: IntAct's records for PubMed 19524572

B1: Phototropin-1 (Arabidopsis thaliana (Mouse-ear cress)), O48963 (parent)
chain: MEPTEKPSTKPSSRTLPRDTRGSLEVFNPSTQLTRPDNPVFRPEPPAWQNLSDPRGTSPQPRPQQEPAPSNPVRSDQEIAVTTSWMALKDPSPETISKKTITAEKPQKSAVAAEQRAAEWGLVLKTDTKTGKPQGVGVRNSGGTENDPNGKKTTSQRNSQNSCRSSGEMSDGDVPGGRSGIPRVSEDLKDALSTFQQTFVVSDATKPDYPIMYASAGFFNMTGYTSKEVVGRNCRFLQGSGTDADELAKIRETLAAGNNYCGRILNYKKDGTSFWNLLTIAPIKDESGKVLKFIGMQVEVSKHTEGAKEKALRPNGLPESLIRYDARQKDMATNSVTELVEAVKRPRALSESTNLHPFMTKSESDELPKKPARRMSENVVPSGRRNSGGGRRNSMQRINEIPEKKSRKSSLSFMGIKKKSESLDESIDDGFIEYGEEDDEISDRDERPESVDDKVRQKEMRKGIDLATTLERIEKNFVITDPRLPDNPIIFASDSFLELTEYSREEILGRNCRFLQGPETDLTTVKKIRNAIDNQTEVTVQLINYTKSGKKFWNIFHLQPMRDQKGEVQYFIGVQLDGSKHVEPVRNVIEETAVKEGEDLVKKTAVNIDEAVRELPDANMTPEDLWANHSKVVHCKPHRKDSPPWIAIQKVLESGEPIGLKHFKPVKPLGSGDTGSVHLVELVGTDQLFAMKAMDKAVMLNRNKVHRARAEREILDLLDHPFLPALYASFQTKTHICLITDYYPGGELFMLLDRQPRKVLKEDAVRFYAAQVVVALEYLHCQGIIYRDLKPENVLIQGNGDISLSDFDLSCLTSCKPQLLIPSIDEKKKKKQQKSQQTPIFMAEPMRASNSFVGTEEYIAPEIISGAGHTSAVDWWALGILMYEMLYGYTPFRGKTRQKTFTNVLQKDLKFPASIPASLQVKQLIFRLLQRDPKKRLGCFEGANEVKQHSFFKGINWALIRCTNPPELETPIFSGEAENGEKVVDPELEDLQTNVF
partner: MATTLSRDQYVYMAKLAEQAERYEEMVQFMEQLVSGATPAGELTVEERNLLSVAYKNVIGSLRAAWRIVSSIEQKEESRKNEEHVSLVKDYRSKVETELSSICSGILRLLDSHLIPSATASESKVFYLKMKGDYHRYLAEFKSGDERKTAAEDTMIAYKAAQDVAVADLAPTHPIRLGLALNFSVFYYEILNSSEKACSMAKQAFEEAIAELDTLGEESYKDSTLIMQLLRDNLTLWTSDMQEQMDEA
B2: Phototropin-1 (Arabidopsis thaliana (Mouse-ear cress)), O48963 (parent)
chain: B1 chain
partner: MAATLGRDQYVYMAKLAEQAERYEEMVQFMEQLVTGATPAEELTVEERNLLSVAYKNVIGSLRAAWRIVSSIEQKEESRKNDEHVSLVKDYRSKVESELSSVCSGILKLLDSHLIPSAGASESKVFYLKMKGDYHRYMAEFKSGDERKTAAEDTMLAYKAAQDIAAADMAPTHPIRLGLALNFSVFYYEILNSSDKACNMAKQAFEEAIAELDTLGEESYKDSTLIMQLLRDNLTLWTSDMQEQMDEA

Variants of: B1
Conditions: with 14338_arath GRF8, P48348

Variant	effect of a mutation on the interaction
S350A	disrupting interaction
S376A	disrupting interaction
S410A	disrupting interaction

Variants of: B2
Conditions: with 14336_arath GRF6, P48349

Variant	effect of a mutation on the interaction
S350A	decreasing interaction

Variants of: B2
Conditions: with 14336_arath GRF6, P48349
Remark: another data set of the same source

Variant	effect of a mutation on the interaction
S350A	disrupting interaction
S376A	disrupting interaction

Variants of: B2
Conditions: with 14336_arath GRF6, P48349
Remark: another data set of the same source

Variant	effect of a mutation on the interaction
S410A	disrupting interaction

Variants of: B2
Conditions: with 14336_arath GRF6, P48349
Remark: another data set of the same source

Variant	effect of a mutation on the interaction
S376A	decreasing interaction
